In PMC2879597 (Structure (London, England : 1993), 2010):
Changes are numbered by the printed parent chain. Names may count otherwise.

T1: IL-22/sIL-22R1 binary complex (UniProt Q9GZX6 34-179; Q8N6P7 16-228)
T1 sequence (looked up) 1: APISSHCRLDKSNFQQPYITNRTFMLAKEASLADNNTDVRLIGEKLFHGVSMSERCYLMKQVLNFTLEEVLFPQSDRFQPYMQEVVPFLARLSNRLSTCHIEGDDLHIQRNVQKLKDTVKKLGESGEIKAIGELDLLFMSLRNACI
T1 sequence (looked up) 2: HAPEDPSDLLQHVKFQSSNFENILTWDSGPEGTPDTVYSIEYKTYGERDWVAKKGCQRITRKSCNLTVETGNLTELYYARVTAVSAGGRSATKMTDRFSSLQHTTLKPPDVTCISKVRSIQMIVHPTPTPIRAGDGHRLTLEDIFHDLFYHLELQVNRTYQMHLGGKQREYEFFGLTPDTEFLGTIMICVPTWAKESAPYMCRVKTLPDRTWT

T2: cmvIL-10/sIL-10R1 binary complex (cytomegalovirus (CMV) | , UniProt P17150 20-175; Q13651 22-235)
T2 sequence 1: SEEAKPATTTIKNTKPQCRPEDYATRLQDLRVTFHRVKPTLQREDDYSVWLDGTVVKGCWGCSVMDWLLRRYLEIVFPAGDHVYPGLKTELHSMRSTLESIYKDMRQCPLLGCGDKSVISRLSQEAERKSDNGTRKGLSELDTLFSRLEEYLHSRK
T2 sequence 2: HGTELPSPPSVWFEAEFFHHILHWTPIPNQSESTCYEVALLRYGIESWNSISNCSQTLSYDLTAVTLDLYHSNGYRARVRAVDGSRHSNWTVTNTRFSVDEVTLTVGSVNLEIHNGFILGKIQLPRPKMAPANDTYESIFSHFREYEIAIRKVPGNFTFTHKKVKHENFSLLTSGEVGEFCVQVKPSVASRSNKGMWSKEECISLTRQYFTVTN

B1: sIL-10R2-NQ (soluble extracellular IL-10R2 chain with N49Q, N68Q, N102Q, N161Q) (receptor, human, UniProt Q08334 20-220, looked up)
chain: MVPPPENVRMNSVNFKNILQWESPAFAKGQLTFTAQYLSYRIFQDKCMQTTLTECDFSSLSKYGDHTLRVRAEFADEHSDWVQITFCPVDDTIIGPPGMQVEVLADSLHMRFLAPKIENEYETWTMKNVYNSWTYNVQYWKQGTDEKFQITPQYDFEVLRNLEPWTTYCVQVRGFLPDRNKAGEWSEPVCEQTTHDETVPS
B2: sIL-10R2 Y173A (on sIL-10R2-NQ) (receptor, human, UniProt Q08334 20-220, looked up)
chain: B1 chain with Y154A
B3: sIL-10R2 Y59A (on sIL-10R2-NQ) (receptor, human, UniProt Q08334 20-220, looked up)
chain: B1 chain with Y40A
B4: sIL-10R2 Y56A (on sIL-10R2-NQ) (receptor, human, UniProt Q08334 20-220, looked up)
chain: B1 chain with Y37A
B5: glycosylated sIL-10R2 (receptor, human, UniProt Q08334 20-220, looked up)
chain: B1 chain with Q30N, Q49N, Q83N, Q142N
modifications: N-linked glycosylation sites N49, N68, N102 and N161 (glycosylated)
B6: sIL-10R2 Y140A (on sIL-10R2-NQ) (receptor, human, UniProt Q08334 20-220, looked up)
chain: B1 chain with Y121A

Assays:
[1] = molecular target: T1, IL-22/sIL-22R1 binary complex
[2] = molecular target: T1, IL-22/sIL-22R1 binary complex; experiment: SPR
[3] = molecular target: T2, cmvIL-10/sIL-10R1 binary complex; experiment: SPR
[4] = molecular target: hIL-10/sIL-10R1 binary complex (human | , UniProt P22301 19-178; Q13651 22-235); experiment: SPR
Chain of hIL-10/sIL-10R1 binary complex (P22301 19-178, one chain of several): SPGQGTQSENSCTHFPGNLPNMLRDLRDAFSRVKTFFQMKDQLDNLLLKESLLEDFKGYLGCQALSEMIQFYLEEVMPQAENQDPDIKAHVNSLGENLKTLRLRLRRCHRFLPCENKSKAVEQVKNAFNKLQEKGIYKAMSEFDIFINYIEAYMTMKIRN

| Binder | Kd [1] [µM] | percent of wild-type binding (normalized RU) [2] | percent of wild-type binding (normalized RU) [3] | percent of wild-type binding (normalized RU) [4] |
| --- | --- | --- | --- | --- |
| B1 | 14 |  |  |  |
| B2 |  | 65 % of WT |  |  |
| B3 |  | ~50 % of WT | ~50 % of WT | ~50 % of WT |
| B4 |  |  | ~20 % of WT | ~20 % of WT |
| B5 | 7 |  |  |  |
| B6 |  |  | ~20 % of WT | ~20 % of WT |
